Measured values published in the Immune Epitope Database (IEDB).
pKd: −log10 of the molar value.

Tests used:
HLA-B*40:01 [1] = assay: IEDB peptide-MHC binding, purified MHC/competitive/fluorescence; filed as Kd, often an IC50 or EC50 that approximates it; ≥ and ≤ were set here for values at or beyond the usual limits of such assays
HLA-B*15:01 [2] = assay: as above; conditions: source organism: Escherichia coli O139:H28 str. E24377A
HLA-B*83:01 = assay: as above
HLA-B*15:42 = assay: as above
HLA-B*45:06 = assay: as above
HLA-B*57:01 [3] = assay: IEDB peptide-MHC binding, purified MHC/competitive/radioactivity; filed as Kd, often an IC50 or EC50 that approximates it; ≥ and ≤ were set here for values at or beyond the usual limits of such assays
HLA-B*58:01 [4] = assay: as above
HLA-A*01:01 [5] = assay: as above
HLA-A*68:02 [6] = assay: as above
HLA-B*15:01 [7] = assay: IEDB peptide-MHC binding, purified MHC/direct/fluorescence; filed as Kd, often an IC50 or EC50 that approximates it; ≥ and ≤ were set here for values at or beyond the usual limits of such assays
HLA-B*57:01 [8] = assay: as above
HLA-A*01:01 [9] = assay: as above
HLA-A*03:01 = assay: as above
HLA-B*58:01 [10] = assay: as above
HLA-B*07:02 = assay: as above
HLA-A*02:01 = assay: as above
HLA-B*27:05 = assay: as above
HLA-B*18:01 = assay: as above
HLA-B*46:01 = assay: as above
HLA-B*44:02 = assay: as above; conditions: source organism: West Nile virus
HLA-A*11:01 = assay: as above
HLA-B*48:01 = assay: as above
HLA-B*53:01 = assay: IEDB peptide-MHC binding, purified MHC/competitive/radioactivity; filed as Kd, often an IC50 or EC50 that approximates it; ≥ and ≤ were set here for values at or beyond the usual limits of such assays
HLA-B*51:01 [11] = assay: IEDB peptide-MHC binding, purified MHC/direct/fluorescence; filed as Kd, often an IC50 or EC50 that approximates it; ≥ and ≤ were set here for values at or beyond the usual limits of such assays
HLA-B*08:01 = assay: as above; conditions: source organism: Orthohantavirus andesense
HLA-A*29:02 = assay: as above; conditions: source organism: Orthohantavirus andesense
HLA-A*69:01 = assay: as above; conditions: source organism: Orthohantavirus andesense
HLA-A*02:12 = assay: as above; conditions: source organism: Orthohantavirus andesense
HLA-B*40:01 [12] = assay: as above; conditions: source organism: Orthohantavirus andesense
HLA-A*68:02 [13] = assay: as above; conditions: source organism: Orthohantavirus andesense
HLA-A*31:01 = assay: as above; conditions: source organism: Orthohantavirus andesense
HLA-A*26:01 = assay: IEDB peptide-MHC binding, purified MHC/competitive/fluorescence; filed as Kd, often an IC50 or EC50 that approximates it; ≥ and ≤ were set here for values at or beyond the usual limits of such assays; conditions: source organism: Orthohantavirus andesense
HLA-B*27:03 = assay: as above; conditions: source organism: Orthohantavirus andesense
HLA-B*39:01 = assay: as above; conditions: source organism: Orthohantavirus andesense
HLA-B*15:17 = assay: as above; conditions: source organism: Orthohantavirus andesense
HLA-B*51:01 [14] = assay: as above; conditions: source organism: Orthohantavirus andesense
[15] = source organism: Yersinia pestis Nepal516
[16] = source organism: Dengue virus 4 Philippines/H241/1956
[17] = source organism: West Nile virus
[18] = source organism: Dengue virus 3 Martinique/1243/1999
[19] = source organism: Dengue virus 1 Brazil/97-11/1997
[20] = source organism: Brucella abortus
[21] = source organism: human gammaherpesvirus 4
[22] = source organism: Orthohantavirus andesense

AEIEDLIFL
pKd (HLA-B*40:01 [1]; source organism: Influenza A virus (A/swine/Italy/1509-6/97(H1N1))): 9.30

AENHFLVGL
pKd (HLA-B*15:01 [2]): ≤ 4.70
pKd (HLA-B*40:01 [1]; source organism: Escherichia coli O139:H28 str. E24377A): 8.60

AEYLYADGI
pKd (HLA-B*83:01; [15]): ≤ 5.30
pKd (HLA-B*40:01 [1]; [15]): 8.37
pKd (HLA-B*15:42; [15]): ≤ 5.30
pKd (HLA-B*45:06; [15]): ≤ 5.30

ASGKLVTQW
pKd (HLA-B*57:01 [3]; [16]): 6.86
pKd (HLA-B*58:01 [4]; [16]): 7.80

ESSKNQTWQI
pKd (HLA-B*57:01 [3]; [16]): ≤ 4.64
pKd (HLA-A*01:01 [5]; [16]): ≤ 4.15
pKd (HLA-B*58:01 [4]; [16]): 5.80
pKd (HLA-A*68:02 [6]; [16]): 6.15

ESWEEVPYLG
pKd (HLA-B*58:01 [4]; source organism: Dengue virus 2 Jamaica/1409/1983): 6.23

FTRYRKEAI
pKd (HLA-B*15:01 [7]; [17]): ≤ 4.70
pKd (HLA-B*57:01 [8]; [17]): ≤ 4.70
pKd (HLA-A*01:01 [9]; [17]): ≤ 4.70
pKd (HLA-A*03:01; [17]): ≤ 4.70
pKd (HLA-B*58:01 [10]; [17]): ≤ 4.70
pKd (HLA-B*07:02; [17]): ≤ 4.70
pKd (HLA-A*02:01; [17]): ≤ 4.70
pKd (HLA-B*27:05; [17]): ≤ 4.70
pKd (HLA-B*18:01; [17]): ≤ 4.70
pKd (HLA-B*46:01; [17]): ≤ 4.70
pKd (HLA-B*44:02): ≤ 4.70
pKd (HLA-A*11:01; [17]): ≤ 4.70
pKd (HLA-B*48:01; [17]): ≤ 4.70

GADTSEVHW
pKd (HLA-B*57:01 [3]; [16]): 6.01
pKd (HLA-B*58:01 [4]; [16]): 7.18

GTSLTQKVVI
pKd (HLA-B*57:01 [3]; [18]): 5.64
pKd (HLA-B*58:01 [4]; [18]): 6.71

IAVASGLLW
pKd (HLA-B*57:01 [3]; [16]): 8.66
pKd (HLA-B*58:01 [4]; [16]): 9.18
pKd (HLA-B*53:01; [16]): 7.51

KTTLSLDYAW
pKd (HLA-B*57:01 [3]; [19]): 9.07

LPAIIRPSF
pKd (HLA-B*07:02; [20]): 6.99
pKd (HLA-B*51:01 [11]; [20]): ≤ 4.70

LTGGVTLFF
pKd (HLA-A*01:01 [5]; [19]): 4.72
pKd (HLA-B*58:01 [4]; [19]): 6.97

MPSSYAAGM
pKd (HLA-B*51:01 [11]; source organism: Giardia lamblia ATCC 50803): 6.06

QELSDAPFL
pKd (HLA-B*40:01 [1]; source organism: Influenza A virus (A/Hokkaido/20/89(H3N2))): 8.70

QTQRSGVLW
pKd (HLA-B*57:01 [3]; [18]): 7.73
pKd (HLA-B*58:01 [4]; [18]): 8.83

RPRPRTPEW
pKd (HLA-B*83:01; [21]): 6.37
pKd (HLA-B*15:42; [21]): ≤ 5.30
pKd (HLA-B*45:06; [21]): ≤ 5.30

SASSMINGVV
pKd (HLA-B*57:01 [3]; [18]): 5.70
pKd (HLA-B*58:01 [4]; [18]): 5.20
pKd (HLA-A*68:02 [6]; [18]): 6.78

SIKFKRKLM
pKd (HLA-B*15:01 [7]; [22]): ≤ 4.70
pKd (HLA-B*08:01): ≤ 5.30
pKd (HLA-B*57:01 [8]; [22]): ≤ 4.70
pKd (HLA-A*29:02): ≤ 4.70
pKd (HLA-A*01:01 [9]; [22]): ≤ 4.70
pKd (HLA-A*03:01; [22]): ≤ 4.70
pKd (HLA-A*69:01): ≤ 4.70
pKd (HLA-B*58:01 [10]; [22]): ≤ 4.70
pKd (HLA-A*02:12): ≤ 4.70
pKd (HLA-B*07:02; [22]): ≤ 4.70
pKd (HLA-A*02:01; [22]): ≤ 4.70
pKd (HLA-B*40:01 [12]): ≤ 4.70
pKd (HLA-B*27:05; [22]): ≤ 4.70
pKd (HLA-B*18:01; [22]): ≤ 4.70
pKd (HLA-A*68:02 [13]): ≤ 4.70
pKd (HLA-B*46:01; [22]): ≤ 4.70
pKd (HLA-A*31:01): ≤ 4.70
pKd (HLA-A*11:01; [22]): ≤ 4.70
pKd (HLA-B*48:01; [22]): ≤ 4.70
pKd (HLA-A*26:01): ≤ 4.70
pKd (HLA-B*27:03): ≤ 4.70
pKd (HLA-B*39:01): ≤ 4.70
pKd (HLA-B*15:17): ≤ 4.70
pKd (HLA-B*51:01 [14]): ≤ 4.70

SSSMRKTDW
pKd (HLA-B*57:01 [3]; [18]): 6.38

STSLLFLNDM
pKd (HLA-B*57:01 [3]; [16]): 7.06

TALFSGVSW
pKd (HLA-B*57:01 [3]; [18]): 9.23
pKd (HLA-B*53:01; [18]): 7.30

TEAKIISLL
pKd (HLA-B*40:01 [1]; source organism: Shigella flexneri 5 str. 8401): 8.09

VASAAQRRGR
pKd (HLA-B*58:01 [4]; [19]): 6.80
